Measurements published in article PMC10622425.
Where “and” joins values, the source holds several entries; their conditions need not be identical. Equal entries are not always repeated.

Target: M2 protein of human Influenza A virus A/WSN/33 (H1N1), wild type (Influenza A virus A/WSN/33 (H1N1))

For “M2 protein of human Influenza A virus A/WSN/33 (H1N1), wild type (natural protein)”, the stoichiometry N was 4 and 2 and 3.
